Key:
[1] = target: T1, MBP-Rop (recombinant wild-type Rop, Drosophila Unc-18) (Drosophila melanogaster, UniProt Q07327 1-597); experiment: pull-down; GST-syx1A^ΔC (2 ug) bound to GST bind resin, 1 hr at 4°C with MBP-Rop or MBP-Rop^G11 at 0-6 uM in NP40 buffer (1% NP-40, 150 mM NaCl, 2 mM EDTA, phosphate); SDS-PAGE, Coomassie, fraction bound quantified in ImageJ, Kd from a dose response curve fit (Prism 6); n = 2; settings: both partners purified
T1 construct: Rop (Ras opposite, Unc-18 orthologue), Drosophila melanogaster; cDNA SD04216 amplified with primers from the start ATG to the stop codon and cloned into pMAL-c5E; Expressed from pMAL-c5E (NEB N8110); printed size of the fusion 110 kDa; also called MBP-Rop^WT; Ras opposite; source: Rosetta cells (Novagen), purified (amylose resin, eluted with maltose)
T1 sequence (Q07327 whole entry, the tested form may be a part): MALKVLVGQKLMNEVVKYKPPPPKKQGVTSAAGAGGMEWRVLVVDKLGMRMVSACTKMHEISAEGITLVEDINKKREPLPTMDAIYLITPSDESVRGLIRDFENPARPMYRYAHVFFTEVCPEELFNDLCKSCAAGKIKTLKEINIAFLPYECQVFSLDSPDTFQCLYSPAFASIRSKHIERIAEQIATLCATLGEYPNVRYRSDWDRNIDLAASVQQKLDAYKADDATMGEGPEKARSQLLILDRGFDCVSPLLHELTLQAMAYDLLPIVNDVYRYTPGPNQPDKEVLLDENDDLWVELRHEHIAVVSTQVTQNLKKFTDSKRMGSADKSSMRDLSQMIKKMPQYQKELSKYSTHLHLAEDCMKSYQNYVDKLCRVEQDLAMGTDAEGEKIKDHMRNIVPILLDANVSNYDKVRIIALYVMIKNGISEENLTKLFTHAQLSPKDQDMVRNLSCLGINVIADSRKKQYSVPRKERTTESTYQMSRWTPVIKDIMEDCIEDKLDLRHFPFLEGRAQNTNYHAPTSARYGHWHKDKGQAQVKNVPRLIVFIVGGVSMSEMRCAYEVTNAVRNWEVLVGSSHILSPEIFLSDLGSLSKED

MBP-Rop^G11 (D45N) = target: T2, MBP-Rop^G11 (D45N) (Drosophila melanogaster, UniProt Q07327 1-597, D45N); experiment: as above; settings: both partners purified
T2 construct: Rop (Ras opposite, Unc-18 orthologue), Drosophila melanogaster; PMAL-Rop with the point mutation of the Rop^G11 allele (Asp45 to Asn; nucleotide G133A) made by site-directed mutagenesis; Same construct as m1 with D45N; the mutation is that of the Rop^G11 allele of Harrison et al., 1994; also called recombinant Rop^G11 mutant protein; source: Rosetta cells (Novagen), purified (amylose resin, …)
T2 sequence (Q07327 whole entry D45N): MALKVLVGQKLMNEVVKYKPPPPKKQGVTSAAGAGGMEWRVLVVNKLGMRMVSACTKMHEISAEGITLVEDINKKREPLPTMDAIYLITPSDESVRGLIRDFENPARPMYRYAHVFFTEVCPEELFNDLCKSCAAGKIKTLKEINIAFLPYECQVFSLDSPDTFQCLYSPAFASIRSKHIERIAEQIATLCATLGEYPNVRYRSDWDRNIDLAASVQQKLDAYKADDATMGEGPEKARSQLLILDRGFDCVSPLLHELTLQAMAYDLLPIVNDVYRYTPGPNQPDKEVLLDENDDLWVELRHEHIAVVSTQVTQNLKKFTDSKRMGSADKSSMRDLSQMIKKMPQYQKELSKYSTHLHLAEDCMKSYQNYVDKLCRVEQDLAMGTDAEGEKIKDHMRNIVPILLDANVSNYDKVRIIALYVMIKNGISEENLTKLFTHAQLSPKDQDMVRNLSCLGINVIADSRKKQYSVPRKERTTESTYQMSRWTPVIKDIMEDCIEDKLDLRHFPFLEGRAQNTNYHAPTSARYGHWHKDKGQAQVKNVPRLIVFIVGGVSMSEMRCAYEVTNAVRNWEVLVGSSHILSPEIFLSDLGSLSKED

B1: GST-syx1A^ΔC (Syntaxin1A, amino acids 1-268) (domain or fragment, Drosophila melanogaster, UniProt Q24547 1-268, looked up)
chain: MTKDRLAALHAAQSDDEEETEVAVNVDGHDSYMDDFFAQVEEIRGMIDKVQDNVEEVKKKHSAILSAPQTDEKTKQELEDLMADIKKNANRVRGKLKGIEQNIEQEEQQNKSSADLRIRKTQHSTLSRKFVEVMTEYNRTQTDYRERCKGRIQRQLEITGRPTNDDELEKMLEEGNSSVFTQGIIMETQQAKQTLADIEARHQDIMKLETSIKELHDMFMDMAMLVESQGEMIDRIEYHVEHAMDYVQTATQDTKKALKYQSKARRKK
notes: Syntaxin 1A, Drosophila melanogaster, amino acids 1-268; Expressed from pGEX-4T1; printed size of the fusion 60 kDa; The nucleotide change A802T would turn codon 268 into a stop, so the chain may end at residue 267 rather than 268; also called recombinant Syntaxin1A
Kd [1]: 0.4 µM
Kd (MBP-Rop^G11 (D45N)): 36.1 µM

Reference: paper PMC6250423, “Molecular mechanisms that stabilize short term synaptic plasticity during presynaptic homeostatic plasticity” (eLife, 2018)
